For experiment [1], the system named is SNU601 cells expressing CLDN18.2. Nature of the experiment: Endocytosis of antibody after binding to SNU601 cells stably expressing CLDN18.2. The settings on record: 10 μg/ml, 4 h. Format: cell-based. How it is done:
It has been reported that the binding of some antibodies to cell surface antigens can cause endocytosis of antigen and antibody complexes, thereby reducing the expression level of the cell surface antigens and accelerating antibody metabolism in vivo (Schrama D et al., 2006, Nat Rev Drug Discov). In this example, the ability of antibodies 18.2-A1, 18.2-A3, 18.2-A4 and 18.2-A6 to be endocytosed by cells was tested in SNU601 cells stably expressing CLDN18.2. […] Subsequently, they were washed at 4° C. and stained with PE-labeled anti-human IgG antibody. After fixation with 4% formalin, antibody binding on the cell surface was tested by flow cytometry.

The target of experiment [2] is T1, CLDN18.2 (CLDN18.2-Flag 293t cells) (Homo sapiens, UniProt P56856).
T1 construct: expressed in transfected cells; host or cells: 293t cells, transient transfection
The experiment is described as follows: Binding specificity, 293t cells expressing CLDN18.2-Flag, flow cytometry. The settings on record: 10 μg/ml antibody, 4° C. 1 hour. The source says:
(§1) Human Claudin18 proteins include two homologues, i.e., CLDN18.1 and CLDN18.2, which share exons other than exon 1, and the exon 1 sequences of CLDN18.1 and CLDN18.2 are highly similar with only 8 different amino acids in the first extracellular region. The exon 1 of CLDN18.1 and the exon 1 of CLDN18.2 are specifically expressed in different tissues driven by different promoters. Among them, CLDN18.1 is specifically expressed in lung epithelial cells, while CLDN18.2 is specifically expressed in gastric epithelial cells. To identify the specificity of the screened CLDN18.2 antibodies, binding of the antibodies to CLDN18.1 and CLDN18.2 was tested.
(§2) Specifically, well-grown 293t cells were taken to transiently express flag-tagged CLDN18.1 (CLDN18.1-Flag) or CLDN18.2 (CLDN18.2-Flag). 48 hours after transfection, the cells were digested with trypsin. After washed with flow cytometry buffer, the cells were mixed with 10 μg/ml of isotype control antibody or one of the above five CLDN18.2 antibodies in 200 μl of flow cytometry buffer, and were incubated at 4° C. for 1 hour. Subsequently, the cells were washed once with flow cytometry buffer, PE-labeled anti-human IgG antibody was added, and incubated at 4° C. for 30 min. The supernatant was removed by centrifugation, wash was performed twice with flow cytometry buffer, and the cells were fixed in a fix solution containing 1% paraformaldehyde and 0.5% triton-X100 and the cell membrane was permeabilized. Subsequently, the cells were incubated with APC-labeled anti-flag antibody for 30 min and tested by flow cytometry.
(In general: Flow cytometry measures light scatter and fluorescence of single cells or particles in a stream.)

The target in experiment [3] is T2, CLDN18.2 (CT26-CLDN18.2 cells) (Homo sapiens, UniProt P56856).
T2 construct: expressed in transfected cells; host or cells: CT26 cells (mouse), lentiviral transduction, puromycin selection
Nature of the experiment: Flow cytometry binding of recombinant antibodies to CT26-CLDN18.2 cells. Conditions: 4° C. 1 hour. As to the method: Binding activities of the recombinant monoclonal antibodies to CLDN18.2 were determined. Specifically, well-grown cell lines stably expressing CT26-CLDN18.2 were taken. The cells were washed with PBS, mixed with the fold-diluted antibody and incubated at 4° C. for 1 hour. The cells were washed once with flow cytometry buffer, PE-labeled anti-human IgG antibody was added, and incubated at 4° C. for 30 minutes. The supernatant was removed by centrifugation, and after the cells were washed with flow cytometry buffer, the fluorescence intensity on the surface of the cells was tested by flow cytometry. The relative binding activity of each antibody was calculated using the average fluorescence intensity.
The binding activity of the defucosylated antibodies 18.2-A1F, 18.2-A3F and 18.2-A4F to CLDN18.2 as compared to the binding activity of 18.2-A1, 18.2-A3 and 18.2-A4 to CLDN18.2 was tested by flow cytometry, the method of which is as described in Example 5, and the experimental results are shown in FIG. 7.

The target in experiment [4] is T3, CLDN18.1 (CLDN18.1-Flag 293t cells) (Homo sapiens, UniProt P56856).
T3 construct: expressed in transfected cells; host or cells: 293t cells, transient transfection
The experiment is described as follows: Binding specificity, 293t cells expressing CLDN18.1-Flag, flow cytometry. The settings on record: 10 μg/ml antibody, 4° C. 1 hour.
Excerpt: as §1, §2

The next experiment relates to control CT26 cell line. The experiment is described as follows: Flow cytometry binding to control CT26 cell line. The settings on record: results not shown.
Experiment [5] has as its system human FcγRIIIa (V158) on FcγRIIIa-Jurkat cells. The experiment is described as follows: Flow cytometry binding to FcγRIIIa-Jurkat cells. From the text: We next further tested the binding activity of the CLDN18.2 antibodies and their defucosylated forms to FcγRIIIa expressed on the cell surface. Specifically, the human FcγRIIIa (V158, high FC binding subtype) gene was cloned into a mammalian cell expression vector carrying a puromycin screening marker and transfected into a Jurkat cell line. A cell line stably expressing FcγRIIIa (FcγRIIIa-Jurkat) was screened with puromycin. In addition, NK92MI is a human NK cell line that naturally expresses the FcγRIIIa receptor (F158, low FC binding subtype). The binding ability of the CLDN18.2 antibodies and their defucosylated forms to FcγRIIIa expressed on the surface of FcγRIIIa-jurkat cells and NK92MI cells was tested by flow cytometry. The specific flow cytometry assay is described with reference to Example 6.

For experiment [6], the system named is untransfected Jurkat cells. Nature of the experiment: Flow cytometry binding to untransfected Jurkat cells. The settings on record: results not shown.

Take “IMAB362: CLDN18.2 specific antibody (IMAB362, Ganymed) [reference compound]”: in experiment [1], the “binding to SNU601 cells expressing CLDN18.2 under 4° C. incubation” value (from here on “binding … under 4° C. incubation”) is on record as “bound well” and the “antibody staining/binding on the cell surface under 37° C. incubation” value (from here on “antibody staining/binding”) is “decreased significantly”.

B1: 18.2-A2: recombinant monoclonal CLDN18.2 antibody, VH SEQ ID NO: 11, VL SEQ ID NO: 16 (antibody, V domains shown)
VH: EVQLVQSGAEVKKPGASVKVSCKASGYTFTSFWVGWVRQAPGQGLEWIGNVSPSDSYTNYNQKFKDRATLTVDKSTSTAYMELSSLRSEDTAVYYCTRLSSGNSFDYWGQGTLVTVSS
VL: DIVMTQSPDSLSVSLGERATINCKSSQSVLNSGNQKNYLTWYQQKPGQPPKLLIYWSSTKQSGVPDRFSGSGSGTDFTLTISSLQAEDVAVYYCQNAFSFPFTFGQGTKVEIK
modifications: 18.2-A2 VH; 18.2-A2 VL
On to B1, for which, in experiment [2], the “binding to CLDN18.2-flag transfected positive 293t cells” value is “able to bind well”. Besides, the “binding to CT26 cell line expressing CLDN18.2” value in experiment [3] is “able to bind well”. In addition, the “binding to CLDN18.1-positive cells” value in experiment [4] is recorded as “none of the six antibodies bound”. In addition, the “binding to control CT26 cell line” value in the experiment with control CT26 cell line is “did not bind”.

B2: 18.2-A3: recombinant monoclonal CLDN18.2 antibody, VH SEQ ID NO: 21, VL SEQ ID NO: 26 (antibody, V domains shown)
VH: EVQLVQSGAEVKKPGASVKVSCKASGYTFTSYWLNWVRQAPGQGLEWIGSMYPSDSYTNYNQKFKDRATLTVDKSTSTAYMELSSLRSEDTAVYYCTRFSRGNSFDYWGQGTLVTVSS
VL: DIVMTQSPDSLTVALGERATINCKSSQSLLESGNQKNYLTWYQQKPGQPPKLLIYWSWAKNSGVPDRFSGSGSGTDFTLTISSLQAEDVAVYYCQNAYAFPFTFGQGTKVEIK
modifications: 18.2-A3 VH; 18.2-A3 VL
As to B2, the “binding to CLDN18.2-flag transfected positive 293t cells” value in experiment [2] is on record as “able to bind well”. Moreover, in experiment [1], the “binding … under 4° C. incubation” value is recorded as “bound well”, the “antibody staining/binding” value is on record as “still bound well” and the “endocytosis by cells under 37° C. incubation” value (“endocytosis by cells” for short) is “did not undergo significant endocytosis”. Moreover, in experiment [3], the “binding to CT26 cell line expressing CLDN18.2” value is reported as “able to bind well”. Besides, in experiment [4], the “binding to CLDN18.1-positive cells” value is reported as “none of the six antibodies bound”. Besides, the “binding to control CT26 cell line” value in the experiment on control CT26 cell line was “did not bind”.

B3: 18.2-A4: recombinant monoclonal CLDN18.2 antibody, VH SEQ ID NO: 31, VL SEQ ID NO: 36 (antibody, V domains shown)
VH: EVQLVQSGAEVKKPGASVKVSCKASGYTFTSFWISWVRQAPGQGLEWIGNILPSDSYTNYNQKFKDRATLTVDKSTSTAYMELSSLRSEDTAVYYCTRYWRGNSFDYWGQGTLVTVSS
VL: DIVMTQSPDSLALALGERATINCKSSQSIINSGNQKNYLTWYQQKPGQPPKLLIYWGGTRHSGVPDRFSGSGSGTDFTLTISSLQAEDVAVYYCQNGYYSPFTFGQGTKVEIK
modifications: 18.2-A4 VH; 18.2-A4 VL
B3: in experiment [5], the “binding to FcγRIIIa-jurkat cells” value is recorded as “able to bind”. Besides, in experiment [2], the “binding to CLDN18.2-flag transfected positive 293t cells” value is “able to bind well”. Besides, the “binding to untransfected Jurkat cells” value in experiment [6] is recorded as “not able to bind”. Also, in experiment [1], the “binding … under 4° C. incubation” value is “bound well”, the “antibody staining/binding” value is “still bound well” and the “endocytosis by cells” value was “did not undergo significant endocytosis”. In experiment [3], the “binding to CT26 cell line expressing CLDN18.2” value is “able to bind well”. The “binding to CLDN18.1-positive cells” value in experiment [4] is “none of the six antibodies bound”. Also, the “binding to control CT26 cell line” value with control CT26 cell line is “did not bind”.

B4: 18.2-A6: recombinant monoclonal CLDN18.2 antibody, VH SEQ ID NO: 55, VL SEQ ID NO: 60 (antibody, V domains shown)
VH: EVQLVQSGAEVKKPGASVKVSCKASGYTFTSYWLGWVRQAPGQGLEWIGIIYPSDSYTNYNQKFKDRATLTVDKSTSTAYMELSSLRSEDTAVYYCTRFWRGNSFDYWGQGTLVTVSS
VL: DIVMTQSPDSLTIGLGERATINCKSSQSLLNSGNQKNYLTWYQQKPGQPPKLLIYWAAGKESGVPDRFSGSGSGTDFTLTISSLQAEDVAVYYCQNGYSHPFTFGQGTKVEIK
modifications: 18.2-A6 VH; 18.2-A6 VL
For the molecule B4, the “binding to CLDN18.2-flag transfected positive 293t cells” value in experiment [2] is “able to bind well”. In experiment [1], the “binding … under 4° C. incubation” value is reported as “bound well”, the “antibody staining/binding” value is “still bound well” and the “endocytosis by cells” value is “did not undergo significant endocytosis”. Moreover, in experiment [3], the “binding to CT26 cell line expressing CLDN18.2” value was “able to bind well”. For the same molecule, the “binding to CLDN18.1-positive cells” value in experiment [4] is on record as “none of the six antibodies bound”. Further, the “binding to control CT26 cell line” value in the experiment on control CT26 cell line is reported as “did not bind”.

B5: 18.2-A5: recombinant monoclonal CLDN18.2 antibody, VH SEQ ID NO: 41, VL SEQ ID NO: 46 (antibody, V domains shown)
VH: EVQLVQSGAEVKKPGASVKVSCKASGYTFTSSWVGWVRQAPGQGLEWIGNSYPSDSYTNYNQKFKDRATLTVDKSTSTAYMELSSLRSEDTAVYYCTRLGRGNSFDYWGQGTLVTVSS
VL: DIVMTQSPDSLTVALGERATINCKSSQSLIHSGNQKNYLTWYQQKPGQPPKLLIYWGLSKNSGVPDRFSGSGSGTDFTLTISSLQAEDVAVYYCQNSIYYPFTFGQGTKVEIK
modifications: 18.2-A5 VH; 18.2-A5 VL
For the molecule B5, the “binding to CLDN18.2-flag transfected positive 293t cells” value in experiment [2] is “able to bind well”. The “binding to CT26 cell line expressing CLDN18.2” value in experiment [3] is “able to bind well”. Further, the “binding to CLDN18.1-positive cells” value in experiment [4] is “none of the six antibodies bound”. Moreover, the “binding to control CT26 cell line” value in the experiment on control CT26 cell line is on record as “did not bind”.

The record behind these values is patent publication US12662531B2, “CLDN18.2 antibody and use thereof” (FUTUREGEN BIOPHARMACEUTICAL (BEIJING) CO., LTD., priority 2019, dated 2026).
